System: cell proliferation
Test: Recombinant human EGF biological activity assay (cell proliferation method/MTT colorimetric method), Chinese Pharmacopoeia 2015 General Rule 3528
Format: cell-based
Method: According to the Pharmacopoeia method, the biological activity of the rHSA/CBD-EGF complex was measured at the cellular level [2015 edition of the Chinese Pharmacopoeia Three General Rules 3528: Recombinant human epidermal growth factor biological activity assay (cell proliferation method/MTT colorimetric method)].

rHSA/CBD: human CBD (vWF A3 domain) ligated to C-terminal of HSA through connecting peptide (GGGS)2; SEQ ID NO. 3
Biological specific activity: None
